EC50 data for three molecules are collected here from patent publication US20200369752A1 (published 2020).

Assay [1] has as its target human monomeric α-Synuclein (UniProt P37840 1-140). As to the kind of experiment: sandwich ELISA.
The target of assay [2] is human fibrillar (PFF) α-Synuclein (UniProt P37840 1-140). As to the kind of experiment: sandwich ELISA.

B1: Syn7031.50.32 (antibody, V domains shown)
VH: EVQLVETGGGLVQPKGSLKLSCAASGFTFNTNAMNWVRQAPGKGLEWVVRIRTKSNNYATYYADSVKDRFTISRDDSQSMLYLQMNNLKTEDTAMYYCVRGGTGTGAMDYWGQGTSVTVSS
VL: DVVMTQTPLSLPVSLGDQASISCRSSQSLVHSNGNTYLHWCLQKPGQSPKLLIYKVSNRFSGVPDRFSGSGSGTDFTLKISRVEAEDLGVYFCSQSTHVPLTFGAGTKLELK
With B1, the values for the EC50 in assay [1] and in assay [2] were 567 nM and 8.86 nM, respectively.

B2: Syn7012.15.32 (antibody, V domains shown)
VH: EVQLVETGGGLVQPKGSLKLSCAASGFTFNTNAMNWVRQAPGKGLEWVVRIRTKSNNYATYYADSVKDRFTISRDDSQSMLYLQMNNLKTEDTAMYYCVRGGTGTGAMDYWGQGTSVTVSS
VL: NIMMTQSPSSLAVSAGEKVTMSCKSSQSVLYSSNQKNYLAWYQQKPGQSPKLLIYWASTRESGVPDRFTGSGSGTDFTLTISSVQAEDLAVYYCHQYLSSYTFGGGTKLEIK
Take B2: the values for the EC50 in assay [1] and in assay [2] were 555 nM and 10.6 nM, respectively.

B3: Syn7009.32.40 (antibody, V domains shown)
VH: EVQLVETGGGLVQPKGSLKLSCAASGFTFNTNAMNWVRQAPGKGLEWVVRIRTKSNNYATYYADSVKDRFTISRDDSQSMLYLQMNNLKTEDTAMYYCVRGGTGTGAMDYWGQGTSVTVSS
VL: DVVMTQTPLSLPVSLGDQASISCRSSQSLVHSNGNTYLHWCLQKPGQSPKLLIYKVSNRFSGVPDRFSGSGSGTDFTLKISRVEAEDLGVYFCSQSTHVPLTFGAGTKLELK
As for B3, the concentration for a half-maximal effect (EC50) in assay [1] was found to be 947 nM; in assay [2] it was 10.1 nM.
